Source: patent US20040167319A1 (Genmab, published 2004)
Where a chain is given by its changes, count along the chain named. *1 amine or outer side, *2 acyl side, *3 side chain or, on linkers, in order; H or OH if unused. Bridges are numbered along the chain shown (N, C = ends). Where no end group is shown, it is not given here. mXylylene = c1cc(C[*:1])cc(C[*:2])c1; minicard = not defined here

T1: IPAGIYA (also: covalently linked to polyethylene card)
T1 construct: 7-mer Pepscan peptide derived from human CD20
T1 peptide: IPAGIYA

T2: KMECLNFIRAHCPYI (linker 4-12 via 1,3‑bis(bromomethyl)‑benzene (inferred); reading uncertain)
T2 construct: 15-mer looped Pepscan peptide derived from human CD20, Cys put in at two positions
T2 peptide: Ac-KMECLNFIRAHCPYI-minicard

T3: CFIRAHTPC (linker 1-9 via 1,3‑bis(bromomethyl)‑benzene (inferred); not fully specified (C-terminus); also: covalently linked to minicard)
T3 construct: 9-mer looped Pepscan peptide derived from human CD20
T3 peptide: CFIRAHTPC

T4: ACPANPSEKNSPSCQ (linker 2-14 via 1,3‑bis(bromomethyl)‑benzene (inferred); reading uncertain)
T4 construct: 15-mer looped Pepscan peptide derived from human CD20, Cys put in at two positions
T4 peptide: Ac-ACPANPSEKNSPSCQ-minicard

T5: LKMECLNFIRCHTPY (linker 5-11 via 1,3‑bis(bromomethyl)‑benzene (inferred); reading uncertain)
T5 construct: 15-mer looped Pepscan peptide derived from human CD20, Cys put in at two positions
T5 peptide: Ac-LKMECLNFIRCHTPY-minicard

T6: ICNAEPANPSEKNCP (linker 2-14 via 1,3‑bis(bromomethyl)‑benzene (inferred); reading uncertain)
T6 construct: 15-mer looped Pepscan peptide derived from human CD20, Cys put in at two positions
T6 peptide: Ac-ICNAEPANPSEKNCP-minicard

T7: CIRAHTPYC (linker 1-9 via 1,3‑bis(bromomethyl)‑benzene (inferred); not fully specified (C-terminus); also: covalently linked to minicard)
T7 construct: 9-mer looped Pepscan peptide derived from human CD20
T7 peptide: CIRAHTPYC

T8: PAGIYAP (also: covalently linked to polyethylene card)
T8 construct: 7-mer Pepscan peptide derived from human CD20
T8 peptide: PAGIYAP

T9: YCAEPANPSEKNSCS (linker 2-14 via 1,3‑bis(bromomethyl)‑benzene (inferred); reading uncertain)
T9 construct: 15-mer looped Pepscan peptide derived from human CD20, Cys put in at two positions
T9 peptide: Ac-YCAEPANPSEKNSCS-minicard

T10: YCNIYNAEPANPSCK (linker 2-14 via mXylylene; reading uncertain)
T10 construct: 15-mer looped Pepscan peptide derived from human CD20, Cys put in at two positions
T10 peptide: Ac-YCNIYNAEPANPSCK-minicard

T11: KMESCNFIRACTPYI (linker 5-11 via 1,3‑bis(bromomethyl)‑benzene (inferred); reading uncertain)
T11 construct: 15-mer looped Pepscan peptide derived from human CD20, Cys put in at two positions
T11 peptide: Ac-KMESCNFIRACTPYI-minicard

T12: NCYNAEPANPSEKCS (linker 2-14 via 1,3‑bis(bromomethyl)‑benzene (inferred); reading uncertain)
T12 construct: 15-mer looped Pepscan peptide derived from human CD20, Cys put in at two positions
T12 peptide: Ac-NCYNAEPANPSEKCS-minicard

T13: NCEPANPSEKNSPCT (linker 2-14 via 1,3‑bis(bromomethyl)‑benzene (inferred); reading uncertain)
T13 construct: 15-mer looped Pepscan peptide derived from human CD20, Cys put in at two positions
T13 peptide: Ac-NCEPANPSEKNSPCT-minicard

T14: PCINIYNAEPANPCE (linker 2-14 via 1,3‑bis(bromomethyl)‑benzene (inferred); reading uncertain)
T14 construct: 15-mer looped Pepscan peptide derived from human CD20, Cys put in at two positions
T14 peptide: Ac-PCINIYNAEPANPCE-minicard

T15: MESLCFIRAHCPYIN (linker 5-11 via 1,3‑bis(bromomethyl)‑benzene (inferred); reading uncertain)
T15 construct: 15-mer looped Pepscan peptide derived from human CD20, Cys put in at two positions
T15 peptide: Ac-MESLCFIRAHCPYIN-minicard

T16: EPANPSEK of the second extracellular loop of human CD20 (human)
T16 construct: not a peptide made as such
T16 peptide: EPANPSEK

T17: AGIYAP of the small first extracellular loop of human CD20 (human)
T17 construct: not a peptide made as such
T17 peptide: AGIYAP

T18: MESLNFIRAHTPYI of the second extracellular loop of human CD20 (human)
T18 construct: not a peptide made as such
T18 peptide: MESLNFIRAHTPYI

B1: 11B8 (antibody, IgG3, V domains shown)
VH: EVQLVQSGGGLVHPGGSLRLSCTGSGFTFSYHAMHWVRQAPGKGLEWVSIIGTGGVTYYADSVKGRFTISRDNVKNSLYLQMNSLRAEDMAVYYCARDYYGAGSFYDGLYGMDVWGQGTTVTVSS
VL: EIVLTQSPATLSLSPGERATLSCRASQSVSSYLAWYQQKPGQAPRLLIYDASNRATGIPARFSGSGSGTDFTLTISSLEPEDFAVYYCQQRSDWPLTFGGGTKVEIK
notes: Human monoclonal IgG3,κ from hybridoma
B2: 7D8 (antibody, IgG1, V domains shown)
VH: EVQLVESGGGLVQPDRSLRLSCAASGFTFHDYAMHWVRQAPGKGLEWVSTISWNSGTIGYADSVKGRFTISRDNAKNSLYLQMNSLRAEDTALYYCAKDIQYGNYYYGMDVWGQGTTVTVSS
VL: B1 VL with D93N, L96I, G100Q, K103R, V104L
notes: Human monoclonal IgG1,κ from hybridoma
B3: 2F2 (antibody, V domains shown)
VH: B2 VH with D15G, H30N, T57S, N77K
VL: B1 VL with D93N, L96I, G100Q, K103R, V104L
modifications: FITC- or 125I-labelled in some assays; F(ab')2 fragments in some; the letters do not carry this
notes: Human monoclonal IgG1,κ from hybridoma; also called 4C9; HuMab 2F2 (hybridoma-derived)

Key:
[1] = molecular target: T1, IPAGIYA; assay: Pepscan ELISA, 100 µg/ml
Excerpt: (§1) In some cases chemical linkage of the legs of a 15-mer peptide helps to identify amino acid sequences of a potentially discontinuous epitope. […] The 9- and 15-mers were synthesized as loops and screened using credit-card format mini-PEPSCAN cards (455 peptide format/card). In all looped peptides amino acids at varied positions were replaced by a cysteine (e.g., acetyl-XCXXXXXXXXCX-minicard). The peptides were synthesized using standard Fmoc-chemistry and deprotected using TFA with scavengers. Subsequently, the deprotected peptides were reacted on the microarray with an 0.5 mM solution of 1,3-bis(bromomethyl)-benzene in ammonium bicarbonate (20 mM, pH 7.9), supplemented with acetonitrile (1:1 (v/v)). The microarrays were gently shaken in the solution for 30-60 min, while completely covered in the solution. Finally, the microarrays were washed extensively with excess of Millipore H₂O and sonicated in disrupt-buffer containing 1% sodium dodecylsulfate, 0.1% β-mercaptoethanol, in PBS (pH 7.2) at 70° C. for 30 min, followed by sonication in millipore H₂O for another 45 min. Subsequently, the microwells were ready for screening in an ELISA-assay.
(§2) […] After washing, the peptides were incubated with anti-human antibody peroxidase (dilution 1:1000, 1 hour, 25° C.), and after washing the peroxidase substrate, 2,2′-azino-di-3-ethylbenzthiazolin sulfonate and 2 μl/ml 3% H₂O₂ were added. After one hour, the color development was measured. The color development of the ELISA was quantified with a CCD-camera and an image processing system.

[2] = molecular target: T2, KMECLNFIRAHCPYI; assay: Pepscan ELISA, 10 µg/ml
Excerpt: as §1, §2

[3] = molecular target: T3, CFIRAHTPC; assay: Pepscan ELISA, 10 µg/ml
Excerpt: as §1, §2

[4] = molecular target: T4, ACPANPSEKNSPSCQ; assay: Pepscan ELISA, 10 µg/ml
Excerpt: as §1, §2

[5] = molecular target: T5, LKMECLNFIRCHTPY; assay: Pepscan ELISA, 10 µg/ml
Excerpt: as §1, §2

[6] = molecular target: T6, ICNAEPANPSEKNCP; assay: Pepscan ELISA, 10 µg/ml
Excerpt: as §1, §2

[7] = molecular target: T7, CIRAHTPYC; assay: Pepscan ELISA, 10 µg/ml
Excerpt: as §1, §2

[8] = molecular target: T8, PAGIYAP; assay: Pepscan ELISA, 10 µg/ml
Excerpt: as §1, §2

[9] = molecular target: T9, YCAEPANPSEKNSCS; assay: Pepscan ELISA, 10 µg/ml
Excerpt: as §1, §2

[10] = molecular target: T10, YCNIYNAEPANPSCK; assay: Pepscan ELISA, 10 µg/ml
Excerpt: as §1, §2

[11] = molecular target: T11, KMESCNFIRACTPYI; assay: Pepscan ELISA, 10 µg/ml
Excerpt: as §1, §2

[12] = molecular target: T12, NCYNAEPANPSEKCS; assay: Pepscan ELISA, 10 µg/ml
Excerpt: as §1, §2

[13] = molecular target: T13, NCEPANPSEKNSPCT; assay: Pepscan ELISA, 10 µg/ml
Excerpt: as §1, §2

[14] = molecular target: T14, PCINIYNAEPANPCE; assay: Pepscan ELISA, 10 µg/ml
Excerpt: as §1, §2

[15] = molecular target: T15, MESLCFIRAHCPYIN; assay: Pepscan ELISA, 10 µg/ml
Excerpt: as §1, §2

[16] = molecular target: T16, EPANPSEK of the second extracellular …; assay: Pepscan ELISA
Protocol: (§3) Pepscan ELISA-assay: The 455-well credit card-format polyethylene cards, containing the covalently linked peptides, were incubated with serum (diluted 1:1000 in blocking solution which contains 5% horse serum (v/v) and 5% ovalbumin (w/v)) (4° C., over night). After washing, the peptides were incubated with anti-human antibody peroxidase (dilution 1:1000, 1 hour, 25° C.), and after washing the peroxidase substrate, 2,2′-azino-di-3-ethylbenzthiazolin sulfonate and 2 μl/ml 3% H₂O₂ were added. After one hour, the color development was measured. The color development of the ELISA was quantified with a CCD-camera and an image processing system. The set up consists of a CCD-camera and a 55 mm lens (Sony CCD Video Camera XC-77RR, Nikon micro-nikk or 55 mm f/2.8 lens), a camera adaptor (Sony Camera adaptor DC-77RR) and the Image Processing Software package Optimas, version 6.5 (Media Cybernetics, Silver Spring, Md. 20910, U.S.A.). Optimas runs on a pentium II computer system.

[17] = molecular target: T17, AGIYAP of the small first extracellular …; assay: Pepscan ELISA
Protocol: as §3

[18] = molecular target: T18, MESLNFIRAHTPYI of the second …; assay: Pepscan ELISA
Protocol: as §3

Binder | OD (absorbance) [1] | OD (absorbance) [2] | OD (absorbance) [3] | OD (absorbance) [4] | OD (absorbance) [5] | OD (absorbance) [6] | OD (absorbance) [7] | OD (absorbance) [8] | OD (absorbance) [9] | OD (absorbance) [10] | OD (absorbance) [11] | OD (absorbance) [12] | OD (absorbance) [13] | OD (absorbance) [14] | OD (absorbance) [15] | binding result [16] | binding result [17] | binding result [18]
B1 | 950 OD | 763 OD | 188 OD | 146 OD | 165 OD | 115 OD | 151 OD | 449 OD | 106 OD | 287 OD | 625 OD | 93 OD | 159 OD | 118 OD | 179 OD | no binding (tested: 10 µg/ml) |  | 
B2 |  | 134 OD | 181 OD | 148 OD | 160 OD | 165 OD | 186 OD | 170 OD | 188 OD | 181 OD | 142 OD | 121 OD | 183 OD | 163 OD | 127 OD | no binding (tested: 10 µg/ml) | no binding (tested: 100 µg/ml) | no binding (tested: 100 µg/ml)
B3 | 85 OD | 48 OD | 91 OD | 77 OD | 49 OD | 43 OD | 57 OD | 43 OD | 65 OD | 86 OD | 39 OD | 49 OD | 61 OD | 65 OD | 41 OD |  |  | 
